One experiment has as its target Aβ1-42 peptide. Kind of experiment: cell-based or functional assay.
For experiment [1], the target named is Peptide 1 of the Aβ1-42 overlapping peptide library. In words: peptide library ELISA, Ab 10 µg/ml. (In general: ELISA stands for enzyme-linked immunosorbent assay.)
Experiment [2] addresses Peptide 10 of the Aβ1-42 overlapping peptide library. Kind of experiment: peptide library ELISA, Ab 10 µg/ml.
The target in experiment [3] is Peptide 11 of the Aβ1-42 overlapping peptide library. In words: peptide library ELISA, Ab 10 µg/ml.
For experiment [4], the target named is Peptide 12 of the Aβ1-42 overlapping peptide library. Kind of experiment: peptide library ELISA, Ab 10 µg/ml.
The target in experiment [5] is Peptide 13 of the Aβ1-42 overlapping peptide library. Kind of experiment: peptide library ELISA, Ab 10 µg/ml.
The target in experiment [6] is Peptide 14 of the Aβ1-42 overlapping peptide library. Kind of experiment: peptide library ELISA, Ab 10 µg/ml.
Experiment [7] concerns the target Peptide 15 of the Aβ1-42 overlapping peptide library. In words: peptide library ELISA, Ab 10 µg/ml.
The target of experiment [8] is Peptide 16 of the Aβ1-42 overlapping peptide library. In words: peptide library ELISA, Ab 10 µg/ml.
Experiment [9] deals with Peptide 17 of the Aβ1-42 overlapping peptide library. In words: peptide library ELISA, Ab 10 µg/ml.
The target in experiment [10] is Peptide 18 of the Aβ1-42 overlapping peptide library. Kind of experiment: peptide library ELISA, Ab 10 µg/ml.
Experiment [11] has as its target Peptide 19 of the Aβ1-42 overlapping peptide library. In words: peptide library ELISA, Ab 10 µg/ml.
Experiment [12] deals with Peptide 2 of the Aβ1-42 overlapping peptide library. In words: peptide library ELISA, Ab 10 µg/ml.
Experiment [13] concerns the target Peptide 20 of the Aβ1-42 overlapping peptide library. Kind of experiment: peptide library ELISA, Ab 10 µg/ml.
In experiment [14] the target is Peptide 21 of the Aβ1-42 overlapping peptide library. In words: peptide library ELISA, Ab 10 µg/ml.
The target in experiment [15] is Peptide 22 of the Aβ1-42 overlapping peptide library. In words: peptide library ELISA, Ab 10 µg/ml.
For experiment [16], the target named is Peptide 23 of the Aβ1-42 overlapping peptide library. Kind of experiment: peptide library ELISA, Ab 10 µg/ml.
For experiment [17], the target named is Peptide 24 of the Aβ1-42 overlapping peptide library. In words: peptide library ELISA, Ab 10 µg/ml.
The target in experiment [18] is Peptide 25 of the Aβ1-42 overlapping peptide library. In words: peptide library ELISA, Ab 10 µg/ml.
Experiment [19] has as its target Peptide 26 of the Aβ1-42 overlapping peptide library. Kind of experiment: peptide library ELISA, Ab 10 µg/ml.
The target in experiment [20] is Peptide 27 of the Aβ1-42 overlapping peptide library. Kind of experiment: peptide library ELISA, Ab 10 µg/ml.
Experiment [21] has as its target Peptide 28 of the Aβ1-42 overlapping peptide library. In words: peptide library ELISA, Ab 10 µg/ml.
Experiment [22] concerns the target Peptide 29 of the Aβ1-42 overlapping peptide library. In words: peptide library ELISA, Ab 10 µg/ml.
Experiment [23] addresses Peptide 3 of the Aβ1-42 overlapping peptide library. Kind of experiment: peptide library ELISA, Ab 10 µg/ml.
The target in experiment [24] is Peptide 30 of the Aβ1-42 overlapping peptide library. In words: peptide library ELISA, Ab 10 µg/ml.
In experiment [25] the target is Peptide 31 of the Aβ1-42 overlapping peptide library. In words: peptide library ELISA, Ab 10 µg/ml.
The target of experiment [26] is Peptide 32 of the Aβ1-42 overlapping peptide library. Kind of experiment: peptide library ELISA, Ab 10 µg/ml.
Experiment [27] deals with Peptide 33 of the Aβ1-42 overlapping peptide library. In words: peptide library ELISA, Ab 10 µg/ml.
Experiment [28] concerns the target Peptide 4 of the Aβ1-42 overlapping peptide library. In words: peptide library ELISA, Ab 10 µg/ml.
In experiment [29] the target is Peptide 5 of the Aβ1-42 overlapping peptide library. In words: peptide library ELISA, Ab 10 µg/ml.
Experiment [30] deals with Peptide 6 of the Aβ1-42 overlapping peptide library. Kind of experiment: peptide library ELISA, Ab 10 µg/ml.
Experiment [31] addresses Peptide 7 of the Aβ1-42 overlapping peptide library. Kind of experiment: peptide library ELISA, Ab 10 µg/ml.
Experiment [32] concerns the target Peptide 8 of the Aβ1-42 overlapping peptide library. In words: peptide library ELISA, Ab 10 µg/ml.
In experiment [33] the target is Peptide 9 of the Aβ1-42 overlapping peptide library. In words: peptide library ELISA, Ab 10 µg/ml.
For experiment [34], the target named is Aβ1-28 peptide, biotinylated (Anaspec). Kind of experiment: ELISA, biotin-peptide on streptavidin, Ab 10 µg/ml; mean of 2, background subtracted. Conditions: remark: other sources report otherwise.
Chain of Aβ1-28 peptide, biotinylated (Anaspec) (chain, as listed by the source): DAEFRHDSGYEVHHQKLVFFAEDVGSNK

Chain of Aβ1-42 peptide (peptide, as listed by the source): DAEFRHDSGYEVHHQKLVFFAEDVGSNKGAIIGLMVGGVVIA

B1: ACI-24-Ab-3 monoclonal antibody (antibody, IgG1, V domains shown)
VH: QVQLQQSGAELARPGASVKLSCKASGYTFTSYGIRWVKQRTGQGLEWIGEICPRSGNTYYNEKFKGKATVTADKSSSTAYMELRSLTSEDSAVYFCARSIYYGRPYYFDYWGQGTTLTVSS
VL: DIVMTQSQLFMSTSVGDRVSVTCKASQNVATNVAWYQQKPGQSPKALIYSASYRYSGVPDRFTGSGSGTDFTLTISNVQSEDLAEYFCQQYNSYPLTFGAGTKLELK
Consider B1, for which the disaggregation of pre-aggregated Aβ1-42, thioflavin T assay, molar ratio 1:10 with Aβ1-42 peptide turned out to be 20%. In addition, the disaggregation of pre-aggregated Aβ1-42, thioflavin T assay, molar ratio 1:100 in the experiment with Aβ1-42 peptide worked out at 12%. The inhibition of Aβ1-42 aggregation, thioflavin T assay, antibody to Aβ1-42 molar ratio 1:10 with Aβ1-42 peptide was found to be 51%. Moreover, in the experiment with Aβ1-42 peptide, the inhibition of Aβ1-42 aggregation, thioflavin T assay, antibody to Aβ1-42 molar ratio 1:100 came to 26%. Also, the O.D. was found to be 0.32 O.D in [1]; 0.2 O.D in experiment [2]; 0.23 O.D in experiment [3]; 0.34 O.D in [4]; 0.23 O.D in [5]; 0.3 O.D in experiment [6]. Moreover, the O.D. in [7] came to 0.32 O.D; in experiment [8], 0.34 O.D; in experiment [9] it was 0.31 O.D; in experiment [10], 0.3 O.D; in [11] it was 0.3 O.D; in [12], 0.26 O.D. Besides, the O.D. is 0.22 O.D in experiment [13]; 0.21 O.D in experiment [14]; 0.21 O.D in experiment [15]; 0.2 O.D in experiment [16]; 0.18 O.D in [17]; 0.23 O.D in experiment [18]. Besides, the O.D. was found to be 0.25 O.D in experiment [19]; 0.26 O.D in experiment [20]; 0.26 O.D in experiment [21]; 0.27 O.D in [22]; 0.37 O.D in experiment [23]; 0.29 O.D in experiment [24]. Moreover, the O.D. was 0.31 O.D in [25]; 0.31 O.D in experiment [26]; 0.26 O.D in experiment [27]; 0.36 O.D in [28]; 0.32 O.D in [29]; 0.34 O.D in experiment [30]. In addition, the O.D. amounted to 0.3 O.D in experiment [31], 0.21 O.D in experiment [32] and 0.19 O.D in [33].

B2: ACI-11-Ab-9 monoclonal antibody (antibody, V domains shown)
VL: QAVVTQESALTTSPGGTVILTCRSSTGAVTTSNYANWVQEKPDHLFTGLIGGTSNRAPGVPVRFSGSLIGDKAALTITGAQTEDDAMYFCALWYSTHYVFGGGTKVTVL
VH: QVQLQQSDAELVKPGASVKISCKVSGYTFTDHTIHWMKQRPEQGLEWIGYIYPRDGSTKYNEKFKGKATLTADKSSSTAYMQLNSLTSEDSAVYFCARDYGYAFDYWGQGTTLTVSS
modifications: here or on the partner: biotinylated (position not given)
Molecule B2 returned an O.D. in experiment [34] of 0.53 O.D.

For the origin of these results see patent US20100291097A1.
